Source: publication PMC4192540, “Targeted In Vivo Inhibition of Specific Protein–Protein Interactions Using Recombinant Antibodies” (PLoS ONE, 2014)

Columns and labels:
Conditions in all cases: partners not purified
[1] = target: T1, ARABIDOPSIS … PHOSPHOTRANSFER PROTEIN 1, Gal4 activation domain fusion (Arabidopsis thaliana (Mouse-ear cress)., UniProt Q9ZNV9); test: two-hybrid; recombinant antibodies as Gal4 DNA BD fusions (pGBKT7), AHP proteins as Gal4 AD fusions (pGADT7-DEST); S. cerevisiae PJ69-4A; growth after 3 days at 30°C on media lacking Leu, Trp and His or Ade; 1-5 mM 3-Amino-1,2,4-triazole for stringent selection
T1 construct: ARABIDOPSIS … PHOSPHOTRANSFER PROTEIN 1 (AHP1), A. thaliana; also called AHP1; source: yeast two-hybrid fusion (pGADT7-DEST, S. cerevisiae PJ69-4A)
T1 sequence (Q9ZNV9 whole entry, the tested form may be a part): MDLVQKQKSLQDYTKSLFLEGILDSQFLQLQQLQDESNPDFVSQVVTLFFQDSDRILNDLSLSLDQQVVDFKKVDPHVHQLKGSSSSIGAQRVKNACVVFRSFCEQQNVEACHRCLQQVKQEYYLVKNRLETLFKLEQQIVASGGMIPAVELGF

[2] = target: T2, ARABIDOPSIS … PHOSPHOTRANSFER PROTEIN 5, Gal4 activation domain fusion (A. thaliana, UniProt Q8L9T7); test: as above
T2 construct: ARABIDOPSIS … PHOSPHOTRANSFER PROTEIN 5 (AHP5), A. thaliana; also called AHP5; source: yeast two-hybrid fusion (pGADT7-DEST, S. cerevisiae PJ69-4A)
T2 sequence (Q8L9T7 whole entry, the tested form may be a part): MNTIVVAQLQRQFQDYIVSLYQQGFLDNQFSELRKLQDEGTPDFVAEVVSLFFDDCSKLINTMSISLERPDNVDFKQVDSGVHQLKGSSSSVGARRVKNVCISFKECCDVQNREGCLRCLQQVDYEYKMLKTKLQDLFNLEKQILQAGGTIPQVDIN

[3] = target: T3, ARABIDOPSIS … PHOSPHOTRANSFER PROTEIN 3, Gal4 activation domain fusion (A. thaliana, UniProt Q9SAZ5); test: as above
T3 construct: ARABIDOPSIS … PHOSPHOTRANSFER PROTEIN 3 (AHP3), A. thaliana; also called AHP3; source: yeast two-hybrid fusion (pGADT7-DEST, S. cerevisiae PJ69-4A)
T3 sequence (Q9SAZ5 whole entry, the tested form may be a part): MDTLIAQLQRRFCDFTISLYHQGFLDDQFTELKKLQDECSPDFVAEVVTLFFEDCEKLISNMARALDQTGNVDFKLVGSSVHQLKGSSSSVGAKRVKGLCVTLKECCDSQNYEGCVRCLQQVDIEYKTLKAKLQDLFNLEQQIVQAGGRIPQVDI

[4] = target: T4, ARABIDOPSIS … PHOSPHOTRANSFER PROTEIN 6, Gal4 activation domain fusion (Arabidopsis thaliana (Mouse-ear cress)., UniProt Q9SSC9); test: as above
T4 construct: ARABIDOPSIS … PHOSPHOTRANSFER PROTEIN 6 (AHP6), A. thaliana; also called AHP6; source: yeast two-hybrid fusion (pGADT7-DEST, S. cerevisiae PJ69-4A)
T4 sequence (Q9SSC9 whole entry, the tested form may be a part): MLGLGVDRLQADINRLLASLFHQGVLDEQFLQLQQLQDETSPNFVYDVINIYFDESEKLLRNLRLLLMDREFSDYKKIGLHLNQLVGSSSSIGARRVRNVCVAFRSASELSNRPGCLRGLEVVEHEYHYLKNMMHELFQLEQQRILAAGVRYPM

[5] = target: T5, ARABIDOPSIS … PHOSPHOTRANSFER PROTEIN 4, Gal4 activation domain fusion (Arabidopsis thaliana (Mouse-ear cress)., UniProt Q9LU15); test: as above
T5 construct: ARABIDOPSIS … PHOSPHOTRANSFER PROTEIN 4 (AHP4), A. thaliana; also called AHP4; source: yeast two-hybrid fusion (pGADT7-DEST, S. cerevisiae PJ69-4A)
T5 sequence (Q9LU15 whole entry, the tested form may be a part): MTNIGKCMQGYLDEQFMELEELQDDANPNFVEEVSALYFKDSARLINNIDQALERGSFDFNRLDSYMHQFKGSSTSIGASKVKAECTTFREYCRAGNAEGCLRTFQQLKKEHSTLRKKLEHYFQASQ

[6] = target: T6, ARABIDOPSIS … PHOSPHOTRANSFER PROTEIN 2, Gal4 activation domain fusion (A. thaliana, UniProt Q9ZNV8); test: as above
T6 construct: ARABIDOPSIS … PHOSPHOTRANSFER PROTEIN 2 (AHP2), A. thaliana; also called AHP2; source: yeast two-hybrid fusion (pGADT7-DEST, S. cerevisiae PJ69-4A)
T6 sequence (Q9ZNV8 whole entry, the tested form may be a part): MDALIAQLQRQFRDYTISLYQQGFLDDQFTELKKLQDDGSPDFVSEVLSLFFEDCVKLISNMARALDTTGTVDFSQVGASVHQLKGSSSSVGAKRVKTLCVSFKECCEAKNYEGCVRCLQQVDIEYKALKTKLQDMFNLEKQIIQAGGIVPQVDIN

[7] = target: T7, recombinant ARABIDOPSIS … PHOSPHOTRANSFER PROTEIN 3 with 6x-His-tag (Arabidopsis thaliana (Mouse-ear cress)., UniProt Q9SAZ5); test: far-Western, overlay or dot blot; total protein extracts of bacterially expressed AHP proteins separated by SDS-PAGE and blotted on PVDF; periplasmic extract with the scFv diluted 1:2 in blocking buffer (5% skimmed milk, TBS, 0.1% Tween-20), 1 h; detected by anti-c-myc-tag antibody
T7 construct: ARABIDOPSIS … PHOSPHOTRANSFER PROTEIN 3 (AHP3), A. thaliana; also called AHP3; AHP3 antigen; source: purified
T7 sequence (Q9SAZ5 whole entry): as the sequence (Q9SAZ5 whole entry, the tested form may be a part) above

[8] = target: T3, ARABIDOPSIS … PHOSPHOTRANSFER PROTEIN …; test: two-hybrid; yeast three-hybrid: receiver domain as Gal4 BD fusion, AHP proteins as Gal4 AD fusions, scFv hB7A expressed ectopically from pY3HS or empty pY3HS; S. cerevisiae PJ69-4A; media lacking Leu, Trp, Ura and His or Ade, or with 1 mM 3-Amino-1,2,4-triazole
AHP3:cYFP = target: T8, AHP3:cYFP (Arabidopsis thaliana (Mouse-ear cress)., UniProt Q9SAZ5); test: split reporter (BiFC, NanoBiT); bimolecular fluorescent complementation with split YFP in A. thaliana Col-0 mesophyll protoplasts, 16 h at room temperature, confocal microscopy
T8 construct: ARABIDOPSIS … PHOSPHOTRANSFER PROTEIN 3 (AHP3), A. thaliana; source: A. thaliana Col-0 mesophyll protoplasts, transfected; not shown: C-terminal fragment of YFP (cYFP), C-terminal, kept
T8 sequence (Q9SAZ5 whole entry, the tested form may be a part): as above

cYFP:CKI1 RD = target: T9, cYFP:CKI1 RD (Arabidopsis thaliana, UniProt O22267); test: as above
T9 construct: CYTOKININ INDEPENDENT … KINASE 1 (CKI1), A. thaliana, receiver domain; source: A. thaliana mesophyll protoplasts, co-transformed; not shown: C-terminal fragment of YFP (cYFP), N-terminal, kept
T9 sequence (O22267 whole entry, looked up, the tested form may be a part): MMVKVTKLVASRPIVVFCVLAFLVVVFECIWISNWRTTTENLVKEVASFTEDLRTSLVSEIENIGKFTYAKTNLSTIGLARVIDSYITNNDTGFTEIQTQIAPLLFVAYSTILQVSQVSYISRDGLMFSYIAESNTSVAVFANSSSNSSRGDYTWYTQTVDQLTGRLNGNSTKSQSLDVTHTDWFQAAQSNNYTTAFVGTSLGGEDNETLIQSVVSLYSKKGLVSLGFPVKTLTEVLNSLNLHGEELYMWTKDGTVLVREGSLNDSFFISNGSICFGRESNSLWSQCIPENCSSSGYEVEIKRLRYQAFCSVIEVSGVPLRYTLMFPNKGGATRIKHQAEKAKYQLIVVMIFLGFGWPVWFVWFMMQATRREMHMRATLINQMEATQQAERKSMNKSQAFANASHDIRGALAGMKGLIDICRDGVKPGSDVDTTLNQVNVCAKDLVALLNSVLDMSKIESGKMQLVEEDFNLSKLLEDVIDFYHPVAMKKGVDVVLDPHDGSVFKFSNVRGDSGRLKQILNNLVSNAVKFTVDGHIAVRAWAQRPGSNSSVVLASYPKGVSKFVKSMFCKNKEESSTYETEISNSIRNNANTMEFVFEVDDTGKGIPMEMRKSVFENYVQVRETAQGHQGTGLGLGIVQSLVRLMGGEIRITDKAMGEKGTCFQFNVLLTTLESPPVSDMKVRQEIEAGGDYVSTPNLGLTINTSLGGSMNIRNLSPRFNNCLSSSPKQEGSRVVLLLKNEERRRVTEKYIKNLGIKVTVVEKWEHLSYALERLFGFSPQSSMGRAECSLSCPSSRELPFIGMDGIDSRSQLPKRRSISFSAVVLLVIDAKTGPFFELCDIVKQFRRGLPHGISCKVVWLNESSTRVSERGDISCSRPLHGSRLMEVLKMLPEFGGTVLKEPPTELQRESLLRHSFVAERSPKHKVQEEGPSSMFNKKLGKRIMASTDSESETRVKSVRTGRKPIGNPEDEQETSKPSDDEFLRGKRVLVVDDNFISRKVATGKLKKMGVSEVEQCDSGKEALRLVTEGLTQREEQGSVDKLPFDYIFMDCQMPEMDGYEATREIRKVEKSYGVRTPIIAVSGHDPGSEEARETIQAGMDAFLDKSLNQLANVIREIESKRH

B1: scFv hB7A, Gal4 DNA binding domain fusion (scFv, V domains shown)
VH: EVQLLESGGGLVQPGGSLRLSCAASGFTFSFYRMSWVRQAPGKGLEWVSAISGSGGSTYYADSVKGRFTISRDNSKNTLYLQMNSLRAEDTAVYYCAKRVLTFDYWGQGTLVTVSS
VL: DIQMTQSPSSLSASVGDRVTITCRASQSIRKRLNWYQQKPGKAPKLLIYAASSLQSGVPSRFSGSGSGTDFTLTISSLQPEDFATYYCQQSYSTPPTFGQGTKVEIK
notes: selected from Human Single Fold scFv Library A+B; cloned between NcoI and NotI of pGBKT7; source: yeast two-hybrid fusion (pGBKT7, S. cerevisiae PJ69-4A)
- binding result [1]: no binding
- binding result [2]: no binding
- binding result [3]: binds
- binding result [4]: no binding
- binding result [5]: no binding
- binding result [6]: no binding

B2: scFv hB7A with C-terminal c-myc-tag (scFv, V domains shown)
VH: B1 VH
VL: B1 VL
notes: source: E. coli BL21(DE3), periplasmic extract; purified (ammonium sulfate, Protein L column); not shown: c-myc-tag, C-terminal, kept
- binding result [7]: binds

B3: scFv hB7A, ectopic expression from pY3HS (scFv, V domains shown)
VH: B1 VH
VL: B1 VL
notes: source: S. cerevisiae PJ69-4A, ectopic expression from pY3HS
- binding result [8]: binds

B4: nYFP:scFv-hB7A (scFv, V domains shown)
VH: B1 VH
VL: B1 VL
notes: sub-cloned from pY3HS with BglII and EcoRI, so the StrepTag II of the cassette may be carried along (surmise); source: A. thaliana Col-0 mesophyll protoplasts, transfected; not shown: N-terminal fragment of YFP (nYFP), N-terminal, kept
- binding result (AHP3:cYFP): binds
- binding result (cYFP:CKI1 RD): no binding

B5: scFv-hB7A:nYFP (scFv, V domains shown)
VH: B1 VH
VL: B1 VL
notes: sub-cloned from pY3HS with BglII and EcoRI, so the StrepTag II of the cassette may be carried along (surmise); source: A. thaliana Col-0 mesophyll protoplasts, transfected; not shown: N-terminal fragment of YFP (nYFP), C-terminal, kept
- binding result (AHP3:cYFP): binds
